Experiment: yeast display, Sf9 membrane polyspecificity reagent, FACS + sequencing; frameworks hold sequencing errors
Outline: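 Sorting gates, low and high (top ~1%), were placed on anti-HA fluorescence to track expression and on streptavidin fluorescence to track reagent binding. A clone's polyreactivity label is taken from the gate it came out of. The reagent was 10% biotinylated, detergent-solubilized Sf9 membrane, applied for 1 hour at 4 °C to galactose-induced yeast display cells.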

Sequence: QVQLVESGGGLVQAGGSLRLSCAASGNIFLKNAMGWYRQAPGKERELVAAISKRGGSTYYAYSVKGRFTISRDNAKNTVYLQMNSLKPEDTAVYYCAAVLTKVWRGPEMDYWGQGTQVTVSS
- polyreactivity (PSR sort gate): high polyreactivity

Sequence: QVQLVESGGGLVQAGGCLRLSCAASGFIFDSNAMGWYRQAPGKERELVAAISRRGGSTYYADSVKGRFTISRDNAKNTVYVHMNSLKPEYTSVYYCNAEYGSHVKYGYWGQGTQVTVSS
- polyreactivity (PSR sort gate): high polyreactivity

Sequence: QVQLVESGGGLVQEGGSLRLSCAASGIIFSRYAMGWYRPAPGKERELVAAITRSGGDTYYADSVKGRFTISRDNAKNTVYLQMNSLNPEDTAVYYCAAERTWYPWVATGYYWGQGTQVTVSS
- polyreactivity (PSR sort gate): low polyreactivity

Sequence: QVQLVESGGGLVQAGGSLRLSCAASGRTFAWYAMAWYRQAPGKERELVATITSRGGSTYYADSVKGRFTISRDNAKNTVYLQMNSLKPEYTAVYYCAAQSFWRPHQYDYWGQGTQVTVSS
- polyreactivity (PSR sort gate): low polyreactivity

Sequence: QVQLVESGGGLVQAGGSLRLSCAASGSTFELNAMGWYRQAPGKERELVAVITISGGNTYYADSVKGRFTISRDNAKNTVDLPMNSLKPDDTAVYYCAARPITTSITRYGFWGQGTQVTVSS
- polyreactivity (PSR sort gate): high polyreactivity

Sequence: QVQLVESGGGLVQAVGSLRLSCAASGSTFKAYAMGWYRQAPGKERELVAAITKSGGRTYYADSVKGRFTISRDNAKNTVYLQMNSLKPEDTAVYYCAAVFRPDSSAYRYYYLGQGTQVTVSS
- polyreactivity (PSR sort gate): high polyreactivity

Sequence: QVQLVESGGGLVQAGGSLRLSCAASGSIFTPYAMGWYRQAPGKERELGATISWSGGRTYYADSVKGRFTISRDNAKNTVYLQMNSLKPEDSAVYYCAARGYSSEYDYWGQGTQVTVSS
- polyreactivity (PSR sort gate): high polyreactivity

Sequence: QVQLVESGGGLVQAGGSLRLSCAASGIIFAPYAMGWYRHPPGKERELVAAITDSGGSTYYADSVKGRFTISRDNSKNTVYLQMKSLKPEDTAVYYCAVDSNPPDWWAVIYGYWGQGTQVTVSS
- polyreactivity (PSR sort gate): low polyreactivity

Sequence: QVQLVESGGGLVQAGGSLRLSCAASGRTFGYYAMGWYRQAPGKERELVAAISWRTVSTHYADSVKGRFTISRDNAKNTVYLQMNSLKPEDTAVYYCAARWGKIRGFHLDYWGQGTQVTVSS
- polyreactivity (PSR sort gate): high polyreactivity

Sequence: QVQLVESGGGLVQAGGSLRLSCAASGSTLEFNAMGWYRQAPGKERELVAVINRSDGSTYYADSVKGRFTISRDNAKNTVYLQMNSLKPEDTADYYCAADRHQVSVISTEDYWGQGTQVTVSS
- polyreactivity (PSR sort gate): low polyreactivity

Sequence: QVQLVESGGGLVQAGGSLRLSCAASGSIFVYYAMGWYRQAPGKERELVAAISQRGGRTYYADSVKGRFTISRDNAKNTVYLQMNSLKPEDTAVYYCAADSGPASAGYYYWGQGTQVTVSS
- polyreactivity (PSR sort gate): high polyreactivity

Sequence: QVQLVESGGGLVQAGGSLRLSCAASGRTFADNAMGWYRQAPGKERELVASISSGTSTNYADSVKGRFTISRDNAKNTVYLQMNSLKPEDTAVYYCAADFSVYTEEDDSWGHGTQVTVSS
- polyreactivity (PSR sort gate): low polyreactivity

Sequence: QVQLVESGGGLVQAGGSLRLSCAASGIIFSSNVMGWYRQAPGKERELVAAISRSGDRTYYADSVKGRFTISRDNAKNTVYLQMNSLKPEDTAVYYCAARERVNVVSNGYWGQGTQVTVSS
- polyreactivity (PSR sort gate): high polyreactivity

Sequence: QVQLVESGGGLVQAGGSLRLSCAAYGSTFYAYAMGWYRQAPGKERELVAAITYRDARTYYADSVKGRFTISRDNAKNTVYLQMISLKPEDTAVYYCARKTGFTVRRYDYWGQGTQVTVSS
- polyreactivity (PSR sort gate): high polyreactivity

Sequence: QVQLVESGGGLVQAGGSLRLSCAASGSTFRKYTMGWYRQAPGKERELVASISRRGGSTYYADSVKGRFTISRDNAKNTVYLQMNSLKPEDTAVYYCNVTYSQYGYDYWGQGTQVTVSS
- polyreactivity (PSR sort gate): high polyreactivity

Sequence: QVQLVESGGGLVQAGGSLRLSCAASGSIFLRNAMGWYRQAPGKERELVAAITWDSGDTYYADSVQGRFTISRDNAKNTVYLQMNSLKPEDTAVYYCNTLGLSSDWGQGTQVTVSS
- polyreactivity (PSR sort gate): low polyreactivity

Sequence: QVQLVESGGGLVQAGGSLRLSCAASGSIFGYNDMGWYRQAPGKERELVAAIDWSDDITYYADSVKGRFTISRDNAKNTVYLQMNSLKPEDTAVYYCATKIRLALYFGYVSEYDYWGQGTQVTVSS
- polyreactivity (PSR sort gate): high polyreactivity

Reference: the nanobody polyreactivity screen of Harvey et al. (2022)
